Assays:
Assay in all cases: cell-based or functional assay
[1] = target: CSR 2DH.2TF2z WT
[2] = target: CSR 82DH.TF2z
[3] = target: CSR 2DH.TF2z
[4] = target: CSR 01 CD2.DH.z
[5] = target: CSR 82DH.2TF2z WT
Chain of CSR 82DH.2TF2z WT (chain, as listed by the source): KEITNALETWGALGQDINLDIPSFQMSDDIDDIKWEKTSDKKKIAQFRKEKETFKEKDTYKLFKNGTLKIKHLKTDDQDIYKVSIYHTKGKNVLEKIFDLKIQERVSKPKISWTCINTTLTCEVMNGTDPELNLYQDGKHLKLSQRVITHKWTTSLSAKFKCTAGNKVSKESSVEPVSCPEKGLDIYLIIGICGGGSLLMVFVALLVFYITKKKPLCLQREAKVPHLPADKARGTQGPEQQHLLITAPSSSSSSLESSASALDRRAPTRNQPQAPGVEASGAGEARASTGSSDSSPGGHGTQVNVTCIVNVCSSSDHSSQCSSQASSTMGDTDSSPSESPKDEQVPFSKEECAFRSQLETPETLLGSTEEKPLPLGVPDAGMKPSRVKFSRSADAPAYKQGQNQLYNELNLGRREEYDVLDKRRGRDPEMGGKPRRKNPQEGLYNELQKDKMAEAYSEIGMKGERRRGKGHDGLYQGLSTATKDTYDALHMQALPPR

Chain of CSR 2DH.TF2z (chain, as listed by the source): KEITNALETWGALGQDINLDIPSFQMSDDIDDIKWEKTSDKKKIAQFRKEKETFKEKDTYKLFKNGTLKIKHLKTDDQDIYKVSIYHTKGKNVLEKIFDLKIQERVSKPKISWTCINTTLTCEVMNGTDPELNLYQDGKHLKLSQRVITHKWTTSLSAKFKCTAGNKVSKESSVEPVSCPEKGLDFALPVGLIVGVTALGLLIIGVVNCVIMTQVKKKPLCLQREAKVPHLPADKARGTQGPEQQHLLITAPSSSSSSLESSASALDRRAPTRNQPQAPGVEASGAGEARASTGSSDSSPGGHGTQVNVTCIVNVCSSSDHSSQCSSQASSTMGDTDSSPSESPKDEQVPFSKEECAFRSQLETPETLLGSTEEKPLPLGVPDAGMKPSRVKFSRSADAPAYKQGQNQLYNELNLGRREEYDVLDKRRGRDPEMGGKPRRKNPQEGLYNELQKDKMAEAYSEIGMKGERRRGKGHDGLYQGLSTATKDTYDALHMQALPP
Chain of CSR 2DH.2TF2z WT (chain, as listed by the source): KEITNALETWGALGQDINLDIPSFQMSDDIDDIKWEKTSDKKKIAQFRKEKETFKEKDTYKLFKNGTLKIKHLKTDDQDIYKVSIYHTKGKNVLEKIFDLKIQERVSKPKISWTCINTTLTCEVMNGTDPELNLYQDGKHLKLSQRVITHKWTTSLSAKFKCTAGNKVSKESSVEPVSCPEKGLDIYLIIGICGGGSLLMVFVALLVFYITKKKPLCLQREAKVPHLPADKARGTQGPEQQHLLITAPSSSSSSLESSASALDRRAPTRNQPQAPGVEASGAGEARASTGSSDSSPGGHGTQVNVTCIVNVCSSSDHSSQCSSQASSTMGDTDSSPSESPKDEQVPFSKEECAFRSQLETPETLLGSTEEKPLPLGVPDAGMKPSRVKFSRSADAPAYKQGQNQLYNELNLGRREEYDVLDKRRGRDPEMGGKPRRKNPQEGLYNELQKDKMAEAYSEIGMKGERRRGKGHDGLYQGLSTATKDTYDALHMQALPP
Chain of CSR 01 CD2.DH.z (chain, as listed by the source): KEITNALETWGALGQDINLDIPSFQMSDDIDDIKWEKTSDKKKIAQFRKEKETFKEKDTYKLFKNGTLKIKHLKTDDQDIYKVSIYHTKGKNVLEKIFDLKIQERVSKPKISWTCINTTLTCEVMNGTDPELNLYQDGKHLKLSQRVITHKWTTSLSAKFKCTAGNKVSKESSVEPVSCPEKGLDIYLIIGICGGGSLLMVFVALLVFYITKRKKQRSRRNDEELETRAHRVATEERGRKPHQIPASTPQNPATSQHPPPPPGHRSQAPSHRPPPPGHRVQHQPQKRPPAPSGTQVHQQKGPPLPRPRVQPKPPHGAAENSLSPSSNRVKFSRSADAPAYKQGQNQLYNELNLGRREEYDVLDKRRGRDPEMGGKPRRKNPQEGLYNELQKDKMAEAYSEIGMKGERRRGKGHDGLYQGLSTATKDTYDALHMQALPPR
Chain of CSR 82DH.TF2z (chain, as listed by the source): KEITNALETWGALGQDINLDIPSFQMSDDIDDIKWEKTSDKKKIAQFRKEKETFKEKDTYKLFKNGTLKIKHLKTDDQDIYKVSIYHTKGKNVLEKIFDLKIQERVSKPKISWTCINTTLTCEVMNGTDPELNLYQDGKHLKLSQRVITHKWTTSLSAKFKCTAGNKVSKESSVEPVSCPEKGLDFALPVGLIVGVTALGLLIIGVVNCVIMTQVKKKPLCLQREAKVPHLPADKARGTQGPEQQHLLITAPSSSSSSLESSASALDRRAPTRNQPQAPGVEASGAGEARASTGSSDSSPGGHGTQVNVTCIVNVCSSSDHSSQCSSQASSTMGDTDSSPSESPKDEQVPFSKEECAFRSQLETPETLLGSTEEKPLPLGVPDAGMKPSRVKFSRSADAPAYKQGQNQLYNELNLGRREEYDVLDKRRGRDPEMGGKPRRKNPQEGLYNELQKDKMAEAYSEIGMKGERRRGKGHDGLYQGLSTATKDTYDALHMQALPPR

pSTAT5 Expression post activation in Treg cells (% of live cells), +16 hours, Donor 4 [1]: 13.9%
pSTAT5 Expression post activation in Treg cells (% of live cells), +16 hours, Donor 5 (% of live cells) [1]: 10.3
pSTAT5 Expression post activation in Treg cells (% of live cells), +24 hours, Donor 4 (% of live cells) [1]: 15.8
pSTAT5 Expression post activation in Treg cells (% of live cells), +24 hours, Donor 5 (% of live cells) [1]: 13.5
pSTAT5 Expression post activation in pan T cells (% of live cells), +4 hours, Donor 1 [1]: 4.73%
pSTAT5 Expression post activation in pan T cells (% of live cells), +4 hours, Donor 2 (% of live cells) [1]: 2.78
pSTAT5 Expression post activation in pan T cells (% of live cells), +24 hours, Donor 1 (% of live cells) [1]: 8.34
pSTAT5 Expression post activation in pan T cells (% of live cells), +24 hours, Donor 2 (% of live cells) [1]: 15.8
pSTAT5 Expression post activation in Treg cells (% of live cells), +16 hours, Donor 4 (% of live cells) [2]: 10.5
pSTAT5 Expression post activation in Treg cells (% of live cells), +24 hours, Donor 4 (% of live cells) [2]: 11.6
pSTAT5 Expression post activation in pan T cells (% of live cells), +4 hours, Donor 1 (% of live cells) [2]: 5.49
pSTAT5 Expression post activation in pan T cells (% of live cells), +4 hours, Donor 2 (% of live cells) [2]: 5.09
pSTAT5 Expression post activation in pan T cells (% of live cells), +24 hours, Donor 1 (% of live cells) [2]: 6.16
pSTAT5 Expression post activation in pan T cells (% of live cells), +24 hours, Donor 2 (% of live cells) [2]: 10.1
pSTAT5 Expression post activation in Treg cells (% of live cells), +16 hours, Donor 4 (% of live cells) [3]: 9.24
pSTAT5 Expression post activation in Treg cells (% of live cells), +24 hours, Donor 4 (% of live cells) [3]: 8.64
pSTAT5 Expression post activation in pan T cells (% of live cells), +4 hours, Donor 1 (% of live cells) [3]: 5.43
pSTAT5 Expression post activation in pan T cells (% of live cells), +4 hours, Donor 2 [3]: 4.2%
pSTAT5 Expression post activation in pan T cells (% of live cells), +24 hours, Donor 1 [3]: 5.67%
pSTAT5 Expression post activation in pan T cells (% of live cells), +24 hours, Donor 2 [3]: 5.17%
pSTAT5 Expression post activation in Treg cells (% of live cells), +16 hours, Donor 4 [4]: 7.1%
pSTAT5 Expression post activation in Treg cells (% of live cells), +16 hours, Donor 5 [4]: 10.3%
pSTAT5 Expression post activation in Treg cells (% of live cells), +24 hours, Donor 4 [4]: 10.5%
pSTAT5 Expression post activation in Treg cells (% of live cells), +24 hours, Donor 5 [4]: 11.1%
pSTAT5 Expression post activation in pan T cells (% of live cells), +4 hours, Donor 1 (% of live cells) [4]: 3.52
pSTAT5 Expression post activation in pan T cells (% of live cells), +4 hours, Donor 2 (% of live cells) [4]: 41.1
pSTAT5 Expression post activation in pan T cells (% of live cells), +24 hours, Donor 1 (% of live cells) [4]: 17.7
pSTAT5 Expression post activation in pan T cells (% of live cells), +24 hours, Donor 2 [4]: 47.9%
pSTAT5 Expression post activation in Treg cells (% of live cells), +16 hours, Donor 4 [5]: 13.3%
pSTAT5 Expression post activation in Treg cells (% of live cells), +16 hours, Donor 5 (% of live cells) [5]: 7.45
pSTAT5 Expression post activation in Treg cells (% of live cells), +24 hours, Donor 4 [5]: 13.6%
pSTAT5 Expression post activation in Treg cells (% of live cells), +24 hours, Donor 5 [5]: 9.16%
pSTAT5 Expression post activation in pan T cells (% of live cells), +4 hours, Donor 1 [5]: 3.24%
pSTAT5 Expression post activation in pan T cells (% of live cells), +4 hours, Donor 2 (% of live cells) [5]: 11
pSTAT5 Expression post activation in pan T cells (% of live cells), +24 hours, Donor 1 (% of live cells) [5]: 5.5
pSTAT5 Expression post activation in pan T cells (% of live cells), +24 hours, Donor 2 [5]: 6.36%
Substance: Immunocult Human CD2 T cell activator (StemCell Technologies)

Reference: patent US20230121433A1
